{
  "source": "paper PMC11817637",
  "origin": "cited, not measured here",
  "key": {"RyR1": {"biological_target": "RyR1 (UniProt P21817)"}, "[1]": {"biological_target": "RyR1 (Oryctolagus cuniculus) (UniProt P11716)", "sequence (P11716 whole entry)": "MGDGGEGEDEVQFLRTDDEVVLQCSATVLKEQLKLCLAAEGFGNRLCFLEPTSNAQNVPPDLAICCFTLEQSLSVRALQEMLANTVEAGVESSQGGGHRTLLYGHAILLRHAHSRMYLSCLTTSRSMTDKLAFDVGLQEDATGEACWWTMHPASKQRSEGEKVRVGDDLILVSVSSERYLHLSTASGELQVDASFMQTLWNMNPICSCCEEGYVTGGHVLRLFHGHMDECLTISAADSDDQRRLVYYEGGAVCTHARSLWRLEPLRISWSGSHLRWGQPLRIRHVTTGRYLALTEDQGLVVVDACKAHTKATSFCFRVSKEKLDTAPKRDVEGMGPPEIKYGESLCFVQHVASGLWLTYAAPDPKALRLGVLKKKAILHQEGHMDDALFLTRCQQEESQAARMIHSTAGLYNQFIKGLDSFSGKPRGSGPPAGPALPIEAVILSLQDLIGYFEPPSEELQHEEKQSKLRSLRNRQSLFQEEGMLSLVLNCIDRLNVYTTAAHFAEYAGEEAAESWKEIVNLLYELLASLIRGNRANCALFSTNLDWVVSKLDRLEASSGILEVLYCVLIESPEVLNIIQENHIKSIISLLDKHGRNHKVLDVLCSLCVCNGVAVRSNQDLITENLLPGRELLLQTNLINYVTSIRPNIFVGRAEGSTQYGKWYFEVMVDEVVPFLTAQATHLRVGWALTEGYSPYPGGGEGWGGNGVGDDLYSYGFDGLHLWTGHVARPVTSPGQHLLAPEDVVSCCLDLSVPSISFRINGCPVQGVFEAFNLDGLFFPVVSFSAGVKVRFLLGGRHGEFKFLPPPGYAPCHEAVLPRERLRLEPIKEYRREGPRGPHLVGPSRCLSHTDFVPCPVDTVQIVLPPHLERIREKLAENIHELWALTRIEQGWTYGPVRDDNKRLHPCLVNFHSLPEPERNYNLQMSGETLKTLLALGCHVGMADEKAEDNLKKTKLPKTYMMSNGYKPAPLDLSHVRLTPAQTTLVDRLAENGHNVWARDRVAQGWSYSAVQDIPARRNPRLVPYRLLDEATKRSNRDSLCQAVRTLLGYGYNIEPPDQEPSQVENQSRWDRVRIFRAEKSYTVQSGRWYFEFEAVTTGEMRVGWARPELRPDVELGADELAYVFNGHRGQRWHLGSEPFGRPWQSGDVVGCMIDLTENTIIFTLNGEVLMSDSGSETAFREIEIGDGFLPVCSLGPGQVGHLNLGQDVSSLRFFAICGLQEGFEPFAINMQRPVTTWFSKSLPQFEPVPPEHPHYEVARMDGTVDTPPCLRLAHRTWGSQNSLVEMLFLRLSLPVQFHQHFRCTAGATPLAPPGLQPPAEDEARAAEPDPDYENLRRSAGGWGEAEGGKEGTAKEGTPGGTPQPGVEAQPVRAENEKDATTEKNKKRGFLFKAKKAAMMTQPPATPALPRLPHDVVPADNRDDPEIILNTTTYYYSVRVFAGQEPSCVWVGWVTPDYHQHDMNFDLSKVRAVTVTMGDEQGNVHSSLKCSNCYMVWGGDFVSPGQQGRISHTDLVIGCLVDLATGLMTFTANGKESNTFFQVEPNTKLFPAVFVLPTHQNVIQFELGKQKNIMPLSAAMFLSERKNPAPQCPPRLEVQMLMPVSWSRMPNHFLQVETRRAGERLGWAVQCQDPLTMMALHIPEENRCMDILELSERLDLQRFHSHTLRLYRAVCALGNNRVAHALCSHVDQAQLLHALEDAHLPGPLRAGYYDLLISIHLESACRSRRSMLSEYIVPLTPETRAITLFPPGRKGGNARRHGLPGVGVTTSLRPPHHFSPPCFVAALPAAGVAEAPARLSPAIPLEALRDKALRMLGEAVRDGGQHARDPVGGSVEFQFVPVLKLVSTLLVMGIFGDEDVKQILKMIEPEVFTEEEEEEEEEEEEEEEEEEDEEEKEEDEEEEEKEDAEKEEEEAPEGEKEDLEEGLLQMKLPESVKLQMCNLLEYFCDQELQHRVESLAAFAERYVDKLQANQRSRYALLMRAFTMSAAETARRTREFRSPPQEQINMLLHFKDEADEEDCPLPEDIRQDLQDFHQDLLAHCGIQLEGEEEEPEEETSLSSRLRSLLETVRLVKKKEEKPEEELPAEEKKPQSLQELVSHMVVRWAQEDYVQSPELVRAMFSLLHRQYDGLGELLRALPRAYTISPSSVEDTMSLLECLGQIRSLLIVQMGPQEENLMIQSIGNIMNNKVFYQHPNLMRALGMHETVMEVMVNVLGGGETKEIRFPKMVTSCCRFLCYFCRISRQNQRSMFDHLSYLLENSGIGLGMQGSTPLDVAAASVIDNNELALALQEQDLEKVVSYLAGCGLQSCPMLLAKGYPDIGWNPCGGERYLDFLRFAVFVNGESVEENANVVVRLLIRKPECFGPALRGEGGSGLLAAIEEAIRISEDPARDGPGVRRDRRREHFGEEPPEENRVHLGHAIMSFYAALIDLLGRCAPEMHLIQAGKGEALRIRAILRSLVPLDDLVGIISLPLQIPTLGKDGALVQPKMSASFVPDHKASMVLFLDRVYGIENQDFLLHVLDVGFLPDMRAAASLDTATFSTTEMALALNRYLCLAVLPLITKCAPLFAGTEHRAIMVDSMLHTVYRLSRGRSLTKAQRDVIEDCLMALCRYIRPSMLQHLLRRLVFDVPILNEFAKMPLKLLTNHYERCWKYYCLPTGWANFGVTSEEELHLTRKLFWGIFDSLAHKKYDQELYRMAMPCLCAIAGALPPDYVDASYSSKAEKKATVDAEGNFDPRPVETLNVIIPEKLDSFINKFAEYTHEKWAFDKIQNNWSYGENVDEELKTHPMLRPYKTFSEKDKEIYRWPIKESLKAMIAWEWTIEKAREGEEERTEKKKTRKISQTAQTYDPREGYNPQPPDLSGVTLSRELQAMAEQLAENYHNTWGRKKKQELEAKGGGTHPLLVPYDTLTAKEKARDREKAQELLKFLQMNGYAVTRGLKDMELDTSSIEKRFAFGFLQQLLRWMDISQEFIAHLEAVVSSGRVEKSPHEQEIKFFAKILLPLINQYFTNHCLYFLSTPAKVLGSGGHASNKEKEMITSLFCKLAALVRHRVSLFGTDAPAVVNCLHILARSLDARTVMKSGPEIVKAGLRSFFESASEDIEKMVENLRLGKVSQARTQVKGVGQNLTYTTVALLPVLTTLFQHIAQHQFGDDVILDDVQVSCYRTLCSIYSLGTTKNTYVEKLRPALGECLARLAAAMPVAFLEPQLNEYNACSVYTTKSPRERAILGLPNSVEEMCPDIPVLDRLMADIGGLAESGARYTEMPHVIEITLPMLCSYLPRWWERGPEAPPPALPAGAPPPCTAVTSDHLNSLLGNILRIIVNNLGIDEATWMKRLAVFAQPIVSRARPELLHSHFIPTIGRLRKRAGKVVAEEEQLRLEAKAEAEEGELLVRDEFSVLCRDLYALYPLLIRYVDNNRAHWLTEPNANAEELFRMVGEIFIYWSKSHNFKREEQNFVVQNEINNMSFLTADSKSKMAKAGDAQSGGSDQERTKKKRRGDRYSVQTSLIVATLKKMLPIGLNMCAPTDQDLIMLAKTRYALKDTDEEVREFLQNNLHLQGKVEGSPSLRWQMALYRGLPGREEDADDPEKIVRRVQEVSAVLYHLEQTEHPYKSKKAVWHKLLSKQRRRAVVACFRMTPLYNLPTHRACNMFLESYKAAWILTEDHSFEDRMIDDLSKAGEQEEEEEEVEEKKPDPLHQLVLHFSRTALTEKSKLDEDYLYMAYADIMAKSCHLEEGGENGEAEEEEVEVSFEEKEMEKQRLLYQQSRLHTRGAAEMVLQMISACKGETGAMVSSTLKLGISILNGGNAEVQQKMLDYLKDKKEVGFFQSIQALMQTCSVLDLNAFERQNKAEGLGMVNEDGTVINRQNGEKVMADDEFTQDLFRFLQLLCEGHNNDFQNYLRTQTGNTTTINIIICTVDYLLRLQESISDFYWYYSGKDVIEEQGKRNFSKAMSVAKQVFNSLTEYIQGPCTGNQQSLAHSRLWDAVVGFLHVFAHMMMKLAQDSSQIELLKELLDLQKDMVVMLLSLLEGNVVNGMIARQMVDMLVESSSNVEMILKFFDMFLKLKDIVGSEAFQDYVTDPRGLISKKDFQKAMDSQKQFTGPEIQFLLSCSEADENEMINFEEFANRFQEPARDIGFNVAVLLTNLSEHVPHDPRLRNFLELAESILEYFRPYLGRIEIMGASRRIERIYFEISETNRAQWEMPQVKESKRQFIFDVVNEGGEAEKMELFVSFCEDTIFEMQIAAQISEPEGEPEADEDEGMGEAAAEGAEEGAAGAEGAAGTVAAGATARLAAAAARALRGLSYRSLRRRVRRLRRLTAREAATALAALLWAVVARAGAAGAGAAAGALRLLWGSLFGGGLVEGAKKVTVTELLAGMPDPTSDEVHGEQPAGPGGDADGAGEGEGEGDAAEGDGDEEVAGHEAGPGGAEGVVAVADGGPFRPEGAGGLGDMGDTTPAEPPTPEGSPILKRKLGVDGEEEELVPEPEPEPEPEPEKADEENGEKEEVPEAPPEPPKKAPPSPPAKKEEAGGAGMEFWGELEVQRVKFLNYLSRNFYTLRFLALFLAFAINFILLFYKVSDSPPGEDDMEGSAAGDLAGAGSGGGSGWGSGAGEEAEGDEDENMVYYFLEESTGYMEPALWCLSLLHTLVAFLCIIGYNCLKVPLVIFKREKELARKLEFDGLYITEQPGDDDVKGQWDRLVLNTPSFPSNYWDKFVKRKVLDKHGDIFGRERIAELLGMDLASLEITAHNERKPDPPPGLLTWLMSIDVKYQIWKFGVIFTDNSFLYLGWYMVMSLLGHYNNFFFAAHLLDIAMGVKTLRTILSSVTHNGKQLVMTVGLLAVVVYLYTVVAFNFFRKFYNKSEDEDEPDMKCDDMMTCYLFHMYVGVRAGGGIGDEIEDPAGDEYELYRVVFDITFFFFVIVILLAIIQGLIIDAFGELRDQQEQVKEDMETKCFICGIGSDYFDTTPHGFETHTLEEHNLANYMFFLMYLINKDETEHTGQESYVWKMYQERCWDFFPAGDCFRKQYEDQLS"}},
  "note": "pKd: −log10 of the molar value.",
  "data": [
    {"substance": "FKBP12 (from UniProt P62942)", "values": [
      {"measurement": "pKd", "setting": "RyR1", "value": 7.00}
    ]},
    {"substance": "FKBP12 (from UniProt P62943)", "values": [
      {"measurement": "pKd", "setting": "[1]", "value": 8.59}
    ]}
  ]
}
